Measurements reported in IntAct's records for PubMed 20148946.

B1: Putative E3 ubiquitin-protein ligase UNKL (Homo sapiens), Q9H9P5 (parent)
chain: MPSVSKAAAAALSGSPPQTEKPTHYRYLKEFRTEQCPLFSQHKCAQHRPFTCFHWHFLNQRRRRPLRRRDGTFNYSPDVYCSKYNEATGVCPDGDECPYLHRTTGDTERKYHLRYYKTGTCIHETDARGHCVKNGLHCAFAHGPLDLRPPVCDVRELQAQEALQNGQLGGGEGVPDLQPGVLASQAMIEKILSEDPRWQDANFVLGSYKTEQCPKPPRLCRQGYACPHYHNSRDRRRNPRRFQYRSTPCPSVKHGDEWGEPSRCDGGDGCQYCHSRTEQQFHPESTKCNDMRQTGYCPRGPFCAFAHVEKSLGMVNEWGCHDLHLTSPSSTGSGQPGNAKRRDSPAEGGPRGSEQDSKQNHLAVFAAVHPPAPSVSSSVASSLASSAGSGSSSPTALPAPPARALPLGPASSTVEAVLGSALDLHLSNVNIASLEKDLEEQDGHDLGAAGPRSLAGSAPVAIPGSLPRAPSLHSPSSASTSPLGSLSQPLPGPVGSSAMTPPQQPPPLRSEPGTLGSAASSYSPLGLNGVPGSIWDFVSGSFSPSPSPILSAGPPSSSSASPNGAELARVRRQLDEAKRKIRQWEESWQQVKQVCDAWQREAQEAKERARVADSDRQLALQKKEEVEAQVIFQLRAKQCVACRERAHGAVLRPCQHHILCEPCAATAPECPYCKGQPLQW

Variants of: B1
Settings: with ubi4p_yeast UBI4, P0CG63
Chain of ubi4p_yeast UBI4, P0CG63 (P0CG63 whole entry): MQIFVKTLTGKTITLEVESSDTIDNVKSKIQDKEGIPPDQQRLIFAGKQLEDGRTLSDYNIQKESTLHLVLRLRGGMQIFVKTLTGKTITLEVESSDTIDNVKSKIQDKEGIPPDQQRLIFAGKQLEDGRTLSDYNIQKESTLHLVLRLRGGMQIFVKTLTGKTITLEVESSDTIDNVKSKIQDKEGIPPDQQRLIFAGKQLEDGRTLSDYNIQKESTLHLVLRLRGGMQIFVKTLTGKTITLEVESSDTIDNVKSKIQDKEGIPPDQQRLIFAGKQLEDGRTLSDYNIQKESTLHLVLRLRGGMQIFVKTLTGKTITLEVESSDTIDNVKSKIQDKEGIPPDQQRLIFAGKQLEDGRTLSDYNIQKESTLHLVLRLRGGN

Variant	effect of a mutation on the interaction
C670A	decreasing interaction
C639A	decreasing interaction
